In patent publication US20210162061A1 (DINGFU BIOTARGET, published 2021):

Tests used:
[1] = target: T1, CD47-muFc (human); assay: BLI (Octet K2), CD47-muFc immobilised on AHC biosensors, 25 C
T1 construct: also called CD47-muFc fusion protein; Group 8
Description: All experiments were performed at 25° C. under a PBS buffer containing 0.5% BSA and 0.5% Tween 20, pH 7.2. […] After the above steps, the subtracted binding interference data were applied to the calculations of binding constants using the FortéBio analysis software provided with the instrument.

[2] = target: T2, human CD47 (human, UniProt Q08722 19-323); assay: flow cytometry histogram, 20 µg/ml, anti-hIgG Fc PE; tumor cells mixed with 15-fold excess of human RBCs; RBC gate
T2 construct: whole, on cells; also called CD47 on A375 cells; CD47 on human erythrocytes (RBC)

[3] = target: T3, CD47-EGFP (human); assay: flow cytometry (MFI, anti-hIgG Fc PE) on cells expressing CD47-EGFP, unit taken from the axis Log10(ug/ml)
T3 construct: also called cell surface human CD47; cells expressing CD47-EGFP
Description: The cells were then analyzed by flow cytometry (Life Technology).

[4] = target: T2, human CD47; assay: flow cytometry histogram, 20 µg/ml, fresh human RBCs diluted 2500 times

T1 sequence (chain, as listed by the source limits assumed): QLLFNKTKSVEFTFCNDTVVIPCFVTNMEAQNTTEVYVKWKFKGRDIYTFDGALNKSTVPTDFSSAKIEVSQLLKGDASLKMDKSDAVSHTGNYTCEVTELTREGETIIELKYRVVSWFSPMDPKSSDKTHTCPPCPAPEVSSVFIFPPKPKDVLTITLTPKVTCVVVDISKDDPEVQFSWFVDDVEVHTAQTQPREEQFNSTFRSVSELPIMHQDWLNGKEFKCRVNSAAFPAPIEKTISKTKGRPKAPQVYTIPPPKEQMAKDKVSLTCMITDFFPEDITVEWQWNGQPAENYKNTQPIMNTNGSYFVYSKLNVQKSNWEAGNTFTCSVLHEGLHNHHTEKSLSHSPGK

Kd [1] | koff [1] | kon [1] | binding result [2] | EC50 [3] | binding result [4] | Binder
0.198 nM | 0.000129 s⁻¹ | 651000 M⁻¹ s⁻¹ | binds | 0.981 µg/mL |  | AB6.12 IgG1 (antibody, V domains shown, also called anti-CD47 monoclonal antibody AB6.12 IgG1; Group 20) VH: QMQLVQSGAEVKKTGSSVKVSCKASGFNIKDYYLHWVRQAPGQALEWMGWIDPDQGDTEYAQKFQDRVTITRDRSMSTAYMELSSLRSEDTAMYYCNAAYGSSSYPMDYWGQGTTVTVSS VL: NIQMTQSPSAMSASVGDRVTITCKASQDIHRYLSWFQQKPGKVPKHLIYRANRLVSGVPSRFSGSGSGTEFTLTISSLQPEDFATYYCLQYDEFPYTFGGGTKVEIKR
 |  |  |  |  | binds | hu56di-CV1 (Fc fusion, also called Group 14) chain 1: QVQLVESGGGLVQPGGSLRLSCAASGKMSSRRCMAWFRQAPGKERERVAKLLTTSGSTYLADSVKGRFTISRDNSKNTVYLQMNSLRAEDTAVYYCAADSFEDPTCTLVTSSGAFQYWGQGTLVTVSSGAPQVQLVESGGGLVQPGGSLRLSCAASGKMSSRRCMAWFRQAPGKERERVAKLLTTSGSTYLADSVKGRFTISRDNSKNTVYLQMNSLRAEDTAVYYCAADSFEDPTCTLVTSSGAFQYWGQGTLVTVSSEPKSSDKTHTCPPCPAPELLGGPSVFLFPPKPKDTLMISRTPEVTCVVVDVSHEDPEVKFNWYVDGVEVHNAKTKPREEQYNSTYRVVSVLTVLHQDWLNGKEYKCKVSNKALPAPIEKTISKAKGQPREPQVYTLPPCRDELTKNQVSLWCLVKGFYPSDIAVEWESNGQPENNYKTTPPVLDSDGSFFLYSALTVDKSRWQQGNVFSCSVMHEALHNHYTQKSLSLSPGK chain 2: EEELQIIQPDKSVLVAAGETATLRCTITSLFPVGPIQWFRGAGPGRVLIYNQRQGPFPRVTTVSDTTKRNNMDFSIRIGNITPADAGTYYCIKFRKGSPDDVEFKSGAGTELSVRAKPSGGGGSDKTHTCPPCPAPELLGGPSVFLFPPKPKDTLMISRTPEVTCVVVDVSHEDPEVKFNWYVDGVEVHNAKTKPREEQYNSTYRVVSVLTVLHQDWLNGKEYKCKVSNKALPAPIEKTISKAKGQPREPQVYTLPPSRDELTKNQVSLSCGVKGFYPSDIAVEWESNGQPENNYKTTPPVLDSDGSFKLASKLTVDKSRWQQGNVFSCSVMHEALHNHYTQKSLSLSPGK
